Reference: PMC6831827, “Structural characterization of the RH1-LZI tandem of JIP3/4 highlights RH1 domains as a cytoskeletal motor-binding motif” (Scientific Reports, 2019)
Values belong to the molecule of their own block, whether it stands above or below them.

Key:
[1] = target: RILPL2 RH1-cc (Homo sapiens) (UniProt Q969X0); experiment: ITC; conditions: cited from earlier work
[2] = target: the molecule itself; experiment: SEC-MALS; Superdex 200 10/300 GL increase, 20 mM Hepes pH 7.5, 200 mM NaCl, 0.5 ml/min; oligomeric state of the fragment
[3] = target: the molecule itself; experiment: AUC; sedimentation velocity with fluorescence detection (SV-FDS), 20 °C, 50,000 rpm; dilution series of Blue-NHS-labelled fragment (RH1-LZI 460 nM to 1.1 nM; LZI 770 nM to 2.4 nM; above 60 nM mixed with unlabelled protein); dimer to monomers
[4] = target: T1, human myosin 5a globular tail domain (GTD; residues 1463-1855) (human, UniProt Q9Y4I1 1463-1855); experiment: AUC; sedimentation velocity, absorbance at 280 nm, 20 °C, 42000 rpm; 20 mM Hepes pH 7.5, 150 mM NaCl, 2 mM MgCl2, 1 mM TCEP; mixtures 22.5 uM JIP3-RH1-LZI + 7.5 uM myo5a-GTD and 7.5 uM JIP3-RH1-LZI + 22.5 uM myo5a-GTD; conditions: both partners purified
T1 construct: myosin 5a (myo5a), human, globular tail domain, residues 1463-1855; pProEx HTB vector with N-terminal 6x Histidine tag and a rTEV cleavage site; the methods describe no cleavage step; also called myo5a-GTD; myo5A-GTD; source: E. coli Rosetta, purified (His-Trap, Superdex 75 gel filtration)
T1 sequence (Q9Y4I1 1463-1855): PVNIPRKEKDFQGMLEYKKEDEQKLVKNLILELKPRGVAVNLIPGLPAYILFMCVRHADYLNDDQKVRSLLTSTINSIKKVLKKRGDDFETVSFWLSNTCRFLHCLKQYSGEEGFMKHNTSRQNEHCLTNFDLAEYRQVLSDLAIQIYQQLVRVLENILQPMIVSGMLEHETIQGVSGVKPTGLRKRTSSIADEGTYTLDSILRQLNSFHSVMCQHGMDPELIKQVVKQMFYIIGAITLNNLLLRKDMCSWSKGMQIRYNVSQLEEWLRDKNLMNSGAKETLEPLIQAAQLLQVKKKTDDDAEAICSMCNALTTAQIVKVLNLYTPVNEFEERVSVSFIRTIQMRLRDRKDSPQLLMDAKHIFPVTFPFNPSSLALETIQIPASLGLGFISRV

[5] = target: T1, human myosin 5a globular tail domain …; experiment: MST; 25 nM Blue-NHS-labelled JIP3 fragment, myo5a-GTD titrated (16 1:1 dilutions); 20 mM hepes pH 7.5, 150 mM NaCl, 2 mM MgCl2, 0.5 mM TCEP, 0.05% tween; 25 °C; three independent replicates; conditions: both partners purified

Sequence of RILPL2 RH1-cc (Homo sapiens) (Q969X0 1-97): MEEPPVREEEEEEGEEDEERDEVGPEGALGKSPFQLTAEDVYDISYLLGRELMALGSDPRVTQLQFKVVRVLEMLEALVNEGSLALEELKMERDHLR

Molecule: myosin Va GTD (from UniProt Q9Y4I1)
Kd [1]: 300 nM

B1: LZI fragment of JIP3 (residues 71-187) (domain or fragment, mouse, UniProt Q9ESN9-1 71-187, looked up)
chain: SENQEHEVELELLREDNEQLLTQYEREKALRKQAEEKFIEFEDALEQEKKELQIQVEHYEFQTRQLELKAKNYADQISRLEERESEMKKEYNALHQRHTEMIQTYVEHIERSKMQQV
modifications: labelled with Monolith NT.115 Protein Labelling Kit BLUE NHS in the SV-FDS experiments only
notes: also called JIP3-LZI; LZ1 fragment; not shown: His-thioredoxin, N-terminal, cleaved
stoichiometry N [2]: 2 | Kd [3]: 110 nM

Now from value to molecule, other results behind:

binding result [4]: binds
B2: RH1-LZI fragment of JIP3 (residues 22-187) (domain or fragment, mouse)
chain: GSHGSVMSERVSGLAGSIYREFERLIHCYDEEVVKELMPLVVNVLENLDSVLSENQEHEVELELLREDNEQLLTQYEREKALRKQAEEKFIEFEDALEQEKKELQIQVEHYEFQTRQLELKAKNYADQISRLEERESEMKKEYNALHQRHTEMIQTYVEHIERSKMQQV
modifications: labelled with Monolith NT.115 Protein Labelling Kit BLUE NHS in the SV-FDS experiments only
notes: Gly-Ser-His residues remaining after the thrombin cleavage; The construct is mouse JIP3; Results and modelling speak of human JIP3 (NP_055948.2); also called JIP3-RH1-LZI; RH1-LZI tandem of JIP3; not shown: His-thioredoxin, N-terminal, cleaved
stoichiometry N [2]: 2 | Kd [3]: < 1 nM

Kd [5]: 2200 ± 500 nM
B3: RH1-lz3 fragment of JIP3 (residues 22-100) (domain or fragment, mouse, UniProt Q9ESN9-1 22-100, looked up)
chain: GSVMSERVSGLAGSIYREFERLIHCYDEEVVKELMPLVVNVLENLDSVLSENQEHEVELELLREDNEQLLTQYEREKAL
modifications: labelled with Protein Labeling Kit Blue-NHS in the MST experiment only
notes: cloned, expressed and purified similarly as the other JIP3 fragments, which are of mouse JIP3 NP_038959.2; also called JIP3-RH1-lz3; JIP3-RH1-Lz3; source: E. coli Rosetta, purified similarly as the other JIP3/4 fragments; not shown: His-thioredoxin, N-terminal, cleaved
stoichiometry N [2]: 2
